Reference: US20200317817A1 (XOMA US, published 2020)
Where a chain is given by its changes, count along the chain named.

T1: human PTH1R on Saos-2 cells (endogenous) (human, UniProt Q03431 27-593)
T1 sequence (looked up): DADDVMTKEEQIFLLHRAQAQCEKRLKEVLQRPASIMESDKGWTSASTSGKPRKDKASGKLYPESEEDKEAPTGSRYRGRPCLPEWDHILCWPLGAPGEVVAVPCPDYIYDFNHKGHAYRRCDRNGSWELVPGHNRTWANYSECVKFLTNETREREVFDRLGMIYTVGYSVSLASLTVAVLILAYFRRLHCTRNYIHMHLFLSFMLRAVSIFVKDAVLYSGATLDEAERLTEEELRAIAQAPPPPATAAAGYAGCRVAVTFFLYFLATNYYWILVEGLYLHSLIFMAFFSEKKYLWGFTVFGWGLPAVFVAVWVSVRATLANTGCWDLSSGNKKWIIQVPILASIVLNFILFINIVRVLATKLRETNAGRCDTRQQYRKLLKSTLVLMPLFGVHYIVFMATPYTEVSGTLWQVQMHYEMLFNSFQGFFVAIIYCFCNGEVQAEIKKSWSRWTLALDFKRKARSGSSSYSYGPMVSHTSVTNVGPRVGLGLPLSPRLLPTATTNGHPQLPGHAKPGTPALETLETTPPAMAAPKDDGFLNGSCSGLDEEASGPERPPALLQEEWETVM

T2: rat PTH1R on UMR106 cells (rat, UniProt P25961 27-591)
T2 sequence (looked up): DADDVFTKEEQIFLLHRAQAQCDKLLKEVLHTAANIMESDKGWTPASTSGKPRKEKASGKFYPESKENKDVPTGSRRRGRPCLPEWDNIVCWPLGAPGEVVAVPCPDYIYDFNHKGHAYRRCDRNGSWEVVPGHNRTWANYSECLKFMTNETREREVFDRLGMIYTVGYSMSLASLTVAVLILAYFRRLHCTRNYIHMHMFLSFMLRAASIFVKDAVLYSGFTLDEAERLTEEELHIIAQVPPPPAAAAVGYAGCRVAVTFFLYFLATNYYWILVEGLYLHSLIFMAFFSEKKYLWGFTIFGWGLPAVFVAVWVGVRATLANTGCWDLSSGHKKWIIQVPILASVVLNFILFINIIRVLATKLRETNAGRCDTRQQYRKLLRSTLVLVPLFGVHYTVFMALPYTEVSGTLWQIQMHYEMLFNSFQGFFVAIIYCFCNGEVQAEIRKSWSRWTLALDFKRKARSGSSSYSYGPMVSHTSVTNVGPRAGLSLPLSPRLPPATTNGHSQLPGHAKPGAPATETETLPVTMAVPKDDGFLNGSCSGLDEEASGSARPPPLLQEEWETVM

T3: human PTH1R overexpressed on CHO cells (human, UniProt Q03431 27-593)
T3 sequence (looked up): T1 sequence (looked up)

T4: mouse PTH1R overexpressed on CHO cells (mouse, UniProt P41593 27-591)
T4 sequence (looked up): T2 sequence (looked up) with S58P, P497L, T518I, T520N, L523I, A528T

T5: recombinant N-terminal extracellular domain of the human PTH1R receptor (human, UniProt Q03431 27-188, limits assumed)
T5 construct: domain: N-terminal extracellular domain; Bought reagent; also called N-ECD PTH1R; PTH1R N-terminal ECD
T5 sequence (looked up): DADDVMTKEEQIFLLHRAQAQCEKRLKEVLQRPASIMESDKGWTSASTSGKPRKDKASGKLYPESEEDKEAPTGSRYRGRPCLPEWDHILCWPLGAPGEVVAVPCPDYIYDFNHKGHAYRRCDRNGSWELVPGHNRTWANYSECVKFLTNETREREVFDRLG

B1: XPA.85.288 (antibody, V domains shown)
VH: QMQLVQSGAEVKKPGSSVKVSCKASGGTFSSYAISWVRQAPGQGLEWMGGIIPIFGTANYAQKFQGRVTITADESTSTAYMELSSLRSEDTAVYYCARGYVVARLWGQGTLVTVSS
VL: DVVMTQTPLSLSVTPGQPASISCKSSQSLLHIDGKTYLYWYLQKSGQSPQLLIYEVSNRFSGVPDTFSGSGSGTDFTLKISRVEAEDVGVYYCMQSLHFPITFGQGTRLEIK
notes: also called Ab288
B2: XPA.85.331 (antibody, V domains shown)
VH: B1 VH
VL: DVVMTQSPLSLPVTPGEPASISCRSSQSLLHIDGFNYLQWYLQKPGQSPQLLVHLGSFRASGVPDRFSGSGSGTDFTLEISRVEAEDVGLYYCMQGLQTPPTFGPGTKVEIK
notes: Light-chain-shuffled variant of XPA.85.012
B3: XPA.85.327 (antibody, V domains shown)
VH: B1 VH
VL: B1 VL with V2I, S22T, K35N, K44R, S45P, S48P, V56I, T66R
notes: Light-chain-shuffled variant of XPA.85.012; also called XPA.327
B4: XPA.85.346 (antibody, V domains shown)
VH: B1 VH
VL: B1 VL with V2I, S22T, Y41F, S45P, S48P, T66R, V90L, F99L
notes: as for B2
B5: XPA.85.342 (antibody, V domains shown)
VH: B1 VH
VL: ETTLTQSPTFMSASVGDRVTITCQASQDINNFLNWYQQKPGKAPKFLIYDASNLEKGVPSRFSGRGSGTEFTLTISSLQPEDIATYYCQQYRDFPLTFGQGTRLEIK
notes: as for B2
B6: XPA.85.345 (antibody, V domains shown)
VH: B1 VH
VL: B5 VL with T9A
notes: as for B2
B7: XPA.85.347 (antibody, V domains shown)
VH: B1 VH
VL: DIVMTQTPLSLSVTPGQPASISCKSSQSLFHDHGRTHLSWYLQKPGQPPQLLIFEASNRFSGVPDRFSGSGSGTDFTLKISRVEAEDVGVYYCMQGIHLPPAFGGGTKLEIK
notes: as for B2
B8: XPA.85.326 (antibody, V domains shown)
VH: B1 VH
VL: B1 VL with V2I, K35L, S45P, S48P, N58H, P64S, T66K, K79T, F99L
notes: as for B2

Target: T1, human PTH1R on Saos-2 cells (endogenous)
Assay: cell-based or functional assay

Binder | fold shift of the PTH (1-34) dose response, M-CSF secretion by Saos-2 cells [fold]
B1 | > 10
B2 | > 10
B3 | > 10
B4 | > 10

Target: T2, rat PTH1R on UMR106 cells
Assay: cell-based or functional assay

Binder | % inhibition of cAMP accumulation at 1 µM PTH(1-34), 267 nM IgG [%] | % inhibition of cAMP accumulation at 1 µM PTHrP(1-34), 267 nM IgG [%]
B1 | 73 | 45
B2 | 42 | 37
B4 | 40 | 31
B5 | 6 | 0

Target: T1, human PTH1R on Saos-2 cells (endogenous)
Assay: cell-based or functional assay
Remark: another data set of the same source

Binder | % inhibition of cAMP accumulation at 1 µM PTH(1-34), 267 nM IgG [%] | % inhibition of cAMP accumulation at 1 µM PTHrP(1-34), 267 nM IgG [%]
B1 | 79 | 79
B2 | 67 | 72
B4 | 72 | 75
B5 | 0 | 17

Target: T3, human PTH1R overexpressed on CHO cells
Assay: cell-based or functional assay

Binder | IC50, inhibition of PTH(1-34)-induced cAMP accumulation [nM] | IC50, inhibition of PTHrP(1-34)-induced cAMP accumulation [nM] | IC50, inhibition of PTH(1-34)-induced cAMP accumulation (curve does not reach a plateau) [nM]
B6 | 14.2 | 12.1 | 
B2 | 14.2 | 8.86 | 
B4 |  | 14.6 | 29.9

Target: T4, mouse PTH1R overexpressed on CHO cells
Assay: cell-based or functional assay

Binder | IC50, inhibition of PTHrP(1-34)-induced cAMP accumulation [nM]
B7 | 2.9
B6 | 2.53
B2 | 3.2
B4 | 3.57

Target: T5, recombinant N-terminal extracellular …
Assay: SPR, IgG captured, ECD injected
Experimental: An anti-human IgG-Fc CMS sensor chip (GE Healthcare) was prepared using standard amine coupling as described by the manufacturer's protocol for the capture Ab on a BIACORE 4000 system (GE Healthcare). Briefly, the chip surface was activated with a 10 minute injection at 10 μL/minute of a freshly mixed 1:1 solution of 0.1 M N-Hydroxysuccinimide (NHS) and 0.4 M 1-Ethyl-3-(3-dimethylaminopropyl) carbodiimide hydrochloride (EDC). Following the activation injection, 15 ug/mL anti-human IgG-Fc antibody in acetate pH 4.5 was injected at 10 μL/minute for 10 minutes to achieve a high density capture surface. 7 minutes of 1M Ethanolamine hydrochloride-NaOH pH 8.5 was injected to block the surface. The NHS, EDC, and Ethanolamine used were from the BIACORE Amine Coupling Kit.
Kinetic Analysis was performed using HBS-EP+(Teknova) with 2.5 mg/mL BSA (Sigma Aldrich, St. Louis Mo.). Antibodies were diluted to 0.5 μg/mL and captured to achieve a surface density of 100 to 200 RU. […] Injections were performed at 30 μL/minute for 240 seconds with a 360 second dissociation time. Regeneration was then performed with one 60 second injection 3M MgCl.
The data were analyzed using BIACORE 4000 Evaluation Software and was double referenced by subtracting both the blank flow cell data and the averaged bracketing blank injections. The data was fit by simultaneously fitting the an off-rate (kd) and on-rate (kₐ), and calculating the KD as KD=kd/kₐ.

Binder | Kd [nM] | koff [s⁻¹] | kon [M⁻¹ s⁻¹]
B8 | 0.19 | 7.3e-05 | 380000
B1 | 0.18 | 0.00014 | 780000
B7 | 0.87 | 0.00077 | 880000
B6 | 0.56 | 0.0013 | 2.3e+06
B2 | 0.22 | 0.00035 | 1.6e+06
B3 | 0.15 | 0.00011 | 740000
B4 | 0.31 | 0.00014 | 450000
B5 | 0.52 | 0.0012 | 2.3e+06
